Test results published in US20250236653A1.

Assays:
human OX40 (human) [1] = molecular target: human OX40 (human) (UniProt P43489); test: cell-based or functional assay
[2] = molecular target: cynomolgus monkey OX40 (cynomolgus monkey); test: flow cytometry on cOX40-Jurkat-NF-κB cells
human OX40 (human) [3] = molecular target: human OX40 (human) (UniProt P43489); test: flow cytometry, traditional IgG1 bivalent mAb on hOX40-Jurkat-NF-κB cells, APC anti-human IgG Fc detection

human OX40 (human), sequence (P43489 29-277): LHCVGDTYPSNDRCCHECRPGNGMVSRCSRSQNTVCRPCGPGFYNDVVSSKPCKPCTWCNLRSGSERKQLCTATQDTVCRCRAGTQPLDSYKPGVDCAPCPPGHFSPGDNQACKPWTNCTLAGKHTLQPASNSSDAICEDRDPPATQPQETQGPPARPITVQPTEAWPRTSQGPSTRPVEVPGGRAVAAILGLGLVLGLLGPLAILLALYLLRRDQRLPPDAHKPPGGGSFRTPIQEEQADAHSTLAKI

percentage of GFP positive hOX40/hIL-12R/Jurkat-NF-κB reporter cells in the presence of A20-hFcγRI cells, EC50 (human OX40 (human) [1]): 0.13 nM
fold difference of EC50 against hOX40-Jurkat-NF-κB cells [2]: < 2 fold
EC50 (human OX40 (human) [3]): 10.2 nM
B1: hG1-20E5 (antibody, from another filing, V domains shown)
VH: EVQLQQSGPELVKPGASVKMSCKASGYTFTSYVMHWVKQKPGQGLEWIGYINPYNDGTKYNEKFKGKATLTSDKSSSTAYMELSSLTSEDSAVYYCANYYGSSLSMDYWGQGTSVTVSS
VL: DIQMTQTTSSLSASLGDRVTISCRASQDISNYLNWYQQKPDGTVKLLIYYTSRLHSGVPSRFSGSGSGTDYSLTISNLEQEDIATYFCQQGNTLPWTFGGGTKLEIKR
